# Substitutions are numbered along the chain they refer to.
# T1: extracellular domain (ECD) of human αKlotho, amino acids E34-S981 with C-terminal 6-His tag (R&D Systems … (human, UniProt Q9UEF7 34-981))
# T1 construct: range 34-981; also called αKlotho (aa34-981); target antigen
# T1 sequence: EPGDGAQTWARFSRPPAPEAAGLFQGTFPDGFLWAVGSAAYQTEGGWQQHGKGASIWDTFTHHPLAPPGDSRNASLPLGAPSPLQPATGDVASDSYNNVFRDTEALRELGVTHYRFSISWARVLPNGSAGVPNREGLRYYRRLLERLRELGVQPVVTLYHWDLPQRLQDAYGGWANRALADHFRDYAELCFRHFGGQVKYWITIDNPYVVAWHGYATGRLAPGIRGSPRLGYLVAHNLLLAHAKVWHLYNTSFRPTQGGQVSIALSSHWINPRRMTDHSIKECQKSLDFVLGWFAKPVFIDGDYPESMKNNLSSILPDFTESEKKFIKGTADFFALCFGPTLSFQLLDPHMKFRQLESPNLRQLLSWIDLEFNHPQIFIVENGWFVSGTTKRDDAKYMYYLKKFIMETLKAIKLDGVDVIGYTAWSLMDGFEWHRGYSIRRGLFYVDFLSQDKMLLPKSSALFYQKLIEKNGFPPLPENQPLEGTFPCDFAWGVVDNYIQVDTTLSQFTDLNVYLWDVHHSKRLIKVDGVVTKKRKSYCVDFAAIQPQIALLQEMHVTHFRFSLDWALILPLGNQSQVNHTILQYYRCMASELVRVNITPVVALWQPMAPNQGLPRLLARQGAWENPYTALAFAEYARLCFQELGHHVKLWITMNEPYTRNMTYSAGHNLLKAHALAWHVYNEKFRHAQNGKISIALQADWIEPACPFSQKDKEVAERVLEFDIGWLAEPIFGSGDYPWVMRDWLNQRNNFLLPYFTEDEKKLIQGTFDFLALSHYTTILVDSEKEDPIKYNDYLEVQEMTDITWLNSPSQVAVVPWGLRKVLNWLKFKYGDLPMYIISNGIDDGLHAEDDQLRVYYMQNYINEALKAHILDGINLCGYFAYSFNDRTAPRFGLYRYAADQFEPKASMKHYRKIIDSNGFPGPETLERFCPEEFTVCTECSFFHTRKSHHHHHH
# B1: anti-αKlotho Fab clone 4809 (Fab, V domains shown)
# VH: EVQLVESGGGLVQPGGSLRLSCAASGFNIYSYYIHWVRQAPGKGLEWVASIYSYYGSTSYADSVKGRFTISADTSKNTAYLQMNSLRAEDTAVYYCARSGPWAWYGLDYWGQGTLVTVSS
# VL: DIQMTQSPSSLSASVGDRVTITCRASQSVSSAVAWYQQKPGKAPKLLIYSASSLYSGVPSRFSGSRSGTDFTLTISSLQPEDFATYYCQQSGWAYHPITFGQGTKVEIKR
# notes: Fab (also as Fab-phage); FLAG tag on light chain; also called sb178
# B2: anti-αKlotho Fab clone 4813 (Fab, V domains shown)
# VH: EVQLVESGGGLVQPGGSLRLSCAASGFNLYSSSIHWVRQAPGKGLEWVASISPYSGYTYYADSVKGRFTISADTSKNTAYLQMNSLRAEDTAVYYCARYYSGWYSPAWWYGIDYWGQGTLVTVSS
# VL: B1 VL with S91A, G92A, A94G, Y95G, H96A
# notes: Fab (also as Fab-phage); FLAG tag on light chain; also called sb182
# B3: anti-αKlotho Fab clone 4826 (Fab, V domains shown)
# VH: EVQLVESGGGLVQPGGSLRLSCAASGFNISSYYMHWVRQAPGKGLEWVASISSSYGYTYYADSVKGRFTISADTSKNTAYLQMNSLRAEDTAVYYCARGYPASSYYYPSSALDYWGQGTLVTVSS
# VL: B1 VL with S91A, W93F, A94F, Y95S, H96Y
# notes: Fab (also as Fab-phage); FLAG tag on light chain; also called sb195
# B4: anti-αKlotho Fab clone 4820 (Fab, V domains shown)
# VH: EVQLVESGGGLVQPGGSLRLSCAASGFNISSYYMHWVRQAPGKGLEWVASIYSSYSSTYYADSVKGRFTISADTSKNTAYLQMNSLRAEDTAVYYCARGAWAMDYWGQGTLVTVSS
# VL: B1 VL with G92P, A94G, Y95A, H96Y, P97L
# notes: Fab (also as Fab-phage); FLAG tag on light chain; also called sb189
# B5: anti-αKlotho Fab clone 4816 (Fab, V domains shown)
# VH: EVQLVESGGGLVQPGGSLRLSCAASGFNFSSSSIHWVRQAPGKGLEWVASISSSYGYTYYADSVKGRFTISADTSKNTAYLQMNSLRAEDTAVYYCARGWYAAYSVYWFGGHASYGLDYWGQGTLVTVSS
# VL: DIQMTQSPSSLSASVGDRVTITCRASQSVSSAVAWYQQKPGKAPKLLIYSASSLYSGVPSRFSGSRSGTDFTLTISSLQPEDFATYYCQQSSYSLITFGQGTKVEIKR
# notes: Fab (also as Fab-phage); FLAG tag on light chain; also called sb185
# B6: anti-αKlotho Fab clone 4823 (Fab, V domains shown)
# VH: EVQLVESGGGLVQPGGSLRLSCAASGFNFSSSSIHWVRQAPGKGLEWVAYIYSSYGYTYYADSVKGRFTISADTSKNTAYLQMNSLRAEDTAVYYCARAAHYGYYVHSGLDYWGQGTLVTVSS
# VL: B5 VL
# notes: Fab (also as Fab-phage); FLAG tag on light chain; also called sb192
# B7: anti-αKlotho Fab clone 4817 (Fab, V domains shown)
# VH: EVQLVESGGGLVQPGGSLRLSCAASGFNFSSSSIHWVRQAPGKGLEWVASISSSYGYTYYADSVKGRFTISADTSKNTAYLQMNSLRAEDTAVYYCARGYPSSGAAWFWFSHPGSAMDYWGQGTLVTVSS
# VL: B5 VL
# notes: Fab (also as Fab-phage); FLAG tag on light chain; also called sb186
# B8: anti-αKlotho Fab clone 4821 (Fab, V domains shown)
# VH: EVQLVESGGGLVQPGGSLRLSCAASGFNLYYSYMHWVRQAPGKGLEWVASISPYSGSTYYADSVKGRFTISADTSKNTAYLQMNSLRAEDTAVYYCARSGFSSWWWVVSYAFDYWGQGTLVTVSS
# VL: B5 VL
# notes: Fab (also as Fab-phage); FLAG tag on light chain; also called sb190
# B9: anti-αKlotho Fab clone 4818 (Fab, V domains shown)
# VH: EVQLVESGGGLVQPGGSLRLSCAASGFNISYSSIHWVRQAPGKGLEWVASISPYSGYTYYADSVKGRFTISADTSKNTAYLQMNSLRAEDTAVYYCARSGHSVYWWWSHFGMDYWGQGTLVTVSS
# VL: DIQMTQSPSSLSASVGDRVTITCRASQSVSSAVAWYQQKPGKAPKLLIYSASSLYSGVPSRFSGSRSGTDFTLTISSLQPEDFATYYCQQPYSPITFGQGTKVEIKR
# notes: Fab (also as Fab-phage); FLAG tag on light chain; also called sb187
# B10: anti-αKlotho Fab clone 4812 (Fab, V domains shown)
# VH: EVQLVESGGGLVQPGGSLRLSCAASGFNLSSYSMHWVRQAPGKGLEWVASISSYSGYTSYADSVKGRFTISADTSKNTAYLQMNSLRAEDTAVYYCARSYSWWWSVSYAMDYWGQGTLVTVSS
# VL: DIQMTQSPSSLSASVGDRVTITCRASQSVSSAVAWYQQKPGKAPKLLIYSASSLYSGVPSRFSGSRSGTDFTLTISSLQPEDFATYYCQQGYWLFTFGQGTKVEIK
# notes: Fab (also as Fab-phage); FLAG tag on light chain; also called sb181
# B11: anti-αKlotho Fab clone 4815 (Fab, V domains shown)
# VH: EVQLVESGGGLVQPGGSLRLSCAASGFNFSSSSIHWVRQAPGKGLEWVASISSSYGYTYYADSVKGRFTISADTSKNTAYLQMNSLRAEDTAVYYCARGFSSSAHWYWSWYGPGGGFDYWGQGTLVTVSS
# VL: B5 VL
# notes: Fab (also as Fab-phage); FLAG tag on light chain; also called sb184
# B12: anti-αKlotho Fab clone 4810 (Fab, V domains shown)
# VH: EVQLVESGGGLVQPGGSLRLSCAASGFNLSSSSIHWVRQAPGKGLEWVAYISPSYGSTSYADSVKGRFTISADTSKNTAYLQMNSLRAEDTAVYYCARSGYYSGAYWHWWVVPYAMDYWGQGTLVTVSS
# VL: B5 VL
# notes: Fab (also as Fab-phage); FLAG tag on light chain; also called sb179
# B13: anti-αKlotho Fab clone 4806 (Fab, V domains shown)
# VH: EVQLVESGGGLVQPGGSLRLSCAASGFNISSSSIHWVRQAPGKGLEWVAYISSSYSSTSYADSVKGRFTISADTSKNTAYLQMNSLRAEDTAVYYCARSSGGGYYHWWVVPYAMDYWGQGTLVTVSS
# VL: B5 VL
# notes: Fab (also as Fab-phage); FLAG tag on light chain; also called sb175
# B14: anti-αKlotho Fab clone 4827 (Fab, V domains shown)
# VH: EVQLVESGGGLVQPGGSLRLSCAASGFNFSSSSIHWVRQAPGKGLEWVAYISSSSGSTSYADSVKGRFTISADTSKNTAYLQMNSLRAEDTAVYYCARAYHSYFYGSYWSYGWAGALDYWGQGTLVTVSS
# VL: B5 VL
# notes: Fab (also as Fab-phage); FLAG tag on light chain; also called sb196
# B15: anti-αKlotho Fab clone 4834 (Fab, V domains shown)
# VH: EVQLVESGGGLVQPGGSLRLSCAASGFNFSSSSIHWVRQAPGKGLEWVASISSSYGYTYYADSVKGRFTISADTSKNTAYLQMNSLRAEDTAVYYCARAVSFYYWAWYGPGFAMDYWGQGTLVTVSS
# VL: B5 VL
# notes: Fab (also as Fab-phage); FLAG tag on light chain; also called sb203
# Target: T1, extracellular domain (ECD) of human …
# Assay: SPR, Fab captured by anti-H+L antibody, αKlotho injected
# Experimental: (§1) Affinity estimates for each of the antibodies were determined by surface plasmon resonance (SPR). Fabs were immobilized using an anti-H+L antibody and serial dilutions of αKlotho were injected.
row,Binder,Kd
1,B1,0.845 nM
2,B2,5.2 nM
3,B3,3.3 nM
4,B4,2.7 nM
5,B5,3.7 nM
6,B6,1.6 nM
7,B7,4.1 nM
8,B8,5.1 nM
9,B9,2.1 nM
10,B10,0.885 nM

# Target: T2, bovine serum albumin (bovine, UniProt P02769 25-607)
# T2 construct: also called BSA
# T2 sequence (P02769 25-607 limits assumed): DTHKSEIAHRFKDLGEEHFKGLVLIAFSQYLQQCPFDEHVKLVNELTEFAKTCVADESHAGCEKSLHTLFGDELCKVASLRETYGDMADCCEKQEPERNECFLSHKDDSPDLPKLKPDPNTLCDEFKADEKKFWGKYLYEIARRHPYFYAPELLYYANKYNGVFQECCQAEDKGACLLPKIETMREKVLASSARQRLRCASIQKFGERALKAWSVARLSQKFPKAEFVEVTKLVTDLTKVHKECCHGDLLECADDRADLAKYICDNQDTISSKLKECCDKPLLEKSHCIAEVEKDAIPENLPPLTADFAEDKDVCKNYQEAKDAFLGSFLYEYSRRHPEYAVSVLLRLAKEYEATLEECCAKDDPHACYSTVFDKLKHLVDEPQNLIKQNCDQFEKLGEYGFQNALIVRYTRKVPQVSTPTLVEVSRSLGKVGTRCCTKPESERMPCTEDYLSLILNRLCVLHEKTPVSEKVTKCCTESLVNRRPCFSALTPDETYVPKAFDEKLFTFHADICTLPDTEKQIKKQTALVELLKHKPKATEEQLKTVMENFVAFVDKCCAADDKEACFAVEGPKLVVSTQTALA
# Assay: Fab ELISA, purified Fab 5 ug/ml on immobilised BSA, anti-Flag-HRP, A450
# Experimental: FIG. 10 is a graph showing absorbance values of Fab ELISAs with additional αKlotho antibodies. Purified Fabs [5 ug/ml] were incubated with immobilized αKlotho (1 ug/ml) or bovine serum albumin (BSA), as a negative control. After washing off unbound Fab, bound Fab were detected using an HRP-conjugated anti-Flag anti-body (Fabs have Flag-tag on the light chain). Colorimetric HRP reagents allow for absorbance readings at 450 nm.
row,Binder,binding result
1,B1,no binding (tested: 5 ug/ml)
2,B4,no binding (tested: 5 ug/ml)
3,B6,no binding (tested: 5 ug/ml)
4,B11,no binding (tested: 5 ug/ml)
5,B12,no binding (tested: 5 ug/ml)
6,B13,no binding (tested: 5 ug/ml)
7,B14,no binding (tested: 5 ug/ml)
8,B15,no binding (tested: 5 ug/ml)

# Target: T1, extracellular domain (ECD) of human …
# Assay: SPR, Fab captured by anti-H+L IgG, αKlotho injected at 50 to 6.25 ug/ml, Langmuir fit [continued]
# Experimental: as §1
Binder,Kd,koff,kon
B1,0.46 nM,0.000258 s⁻¹,560000 M⁻¹ s⁻¹
B2,2.8 nM,0.00164 s⁻¹,588000 M⁻¹ s⁻¹
B3,2.03 nM,0.00218 s⁻¹,1.07e+06 M⁻¹ s⁻¹
B4,1.48 nM,0.00116 s⁻¹,780000 M⁻¹ s⁻¹
B5,2.06 nM,0.00183 s⁻¹,888000 M⁻¹ s⁻¹
B6,0.991 nM,0.000744 s⁻¹,750000 M⁻¹ s⁻¹
B7,1.93 nM,0.00269 s⁻¹,1.39e+06 M⁻¹ s⁻¹
B8,2.85 nM,0.00277 s⁻¹,973000 M⁻¹ s⁻¹
B9,1.05 nM,0.000539 s⁻¹,512000 M⁻¹ s⁻¹
B10,0.387 nM,0.000191 s⁻¹,493000 M⁻¹ s⁻¹

# From patent US20190041402A1 (GOVERNING COUNCIL OF THE UNIVERSITY OF TORONTO, published 2019)
